For the experiment, the target named is ΔN−3 gp17.1 (bacteriophage SPP1) (UniProt O48449). Nature of the experiment: cryo-EM structure; helical reconstruction of polymerized ΔN−3 gp17.1 tubes, 20 mM Tris-HCl pH 7.4 in place of phosphate; the most straight tubes selected; C6, rise 38.46 Å, twist 21.89°; atomic model by hybrid calculation (ISD) with solid-state NMR restraints from gp17.1 tubes.

The source of these data is PMC7666168.

For the substance “ΔN−3 gp17.1 (from UniProt O48449 1-264) (natural protein)”, the stoichiometry N was 6.

As usually defined, the stoichiometry N is a count of units in the complex or per binding partner.
